Assay results taken from patent publication US10526371B2, “Hydrogel-forming peptides” (Universiteit Gent, priority 2015, dated 2020).
Several values for one entry are separate records, joined by “and”; a condition that tells them apart may be missing. Equal entries are not always repeated. Square brackets hold non-standard residues; d marks the D form. Peptide text beside a SMILES is read from it. β3hW = N[C@H](CC(=O)O)Cc1c[nH]c2ccccc12; β3hF = N[C@H](CC(=O)O)Cc1ccccc1

Assays:
elastase [1] = test: Enzymatic degradation study of peptides in non-gelating conditions; format: in vitro ADME; conditions: peptide 350 μM, elastase 60 μM, 37° C., HPLC
Procedure: The following biodegradation experiments were performed in order to assess biostability of peptides of the invention toward elastase, a prominent enzyme present in the subcutaneous compartment.
The following buffer was used to assay the proteolytic stability of the peptides towards elastase: 10 mM PBS at pH 7.2. First, a stock solution of elastase (60 μM in 10 mM PBS) was prepared. Peptides SEQ ID NO 1, 2 and 3 and reference α-peptide SEQ ID NO 23 were subjected to the degradation study and prepared as a stock solution of 350 μM in mQ water (with a resistivity of […]). Enzymatic degradation was carried out by incubation of peptide (900 μL, 350 μM) with the enzyme (150 μL, 60 μM) at 37° C. for 7 days. To preclude any pH-dependent effects on the enzyme's activity, the pH value was kept at pH 6.9±0.5 in all degradation experiments.
The enzyme concentration was selected such that the reference α-peptide SEQ ID NO 23 was completely degraded in less than 1 hour. In case of the α-peptide SEQ ID NO 23, aliquots (70 μL) were periodically taken at 0 min, 5 min, 10 min, 15 min, 20 min and 30 min, while for the mixed α/β-peptides aliquots (70 μL) were taken at 0 min, 20 min, 30 min, 1 h, 2 h, 5 h, 1 day, 2 days, 3 days, 4 days, 5 days and 6 days. 5 μL of 25% AcOH in water (v/v) were added and the degradation was monitored by HPLC analysis. After just 30 min of exposure to elastase, the reference α-peptide SEQ ID NO 23 was completely degraded. The enzymatic degradation of mixed α/β-peptides SEQ ID NO 1, SEQ ID NO 2 and SEQ ID NO 3 was remarkably slower and lasted several days. Mixed α/β-peptides SEQ ID NO 1 and SEQ ID NO 2 were completely consumed after 6 days whilst mixed α/β-peptide SEQ ID NO 1, SEQ ID NO 3 was degraded after 3 days.

elastase [2] = test: Proteolytic stability of hydrogels (elastase solution on top of hydrogel); format: in vitro ADME; conditions: for macroscopic aggregation / physical degradation: over 42 days
Procedure: (B) The proteolytic stability of the hydrogels was analyzed by placing an elastase solution (60 μM in 10 mM PBS) on top of the hydrogel. In all the stability experiments a total volume of 4 mL (gel+PBS solution with and without enzyme) was obtained. The addition of the enzyme solution on top of the hydrogel was set as the starting point of the gel-degradation experiments; B. At specific time-intervals (0 h, 24 h, 2 days, 3 days, 4 days, 5 days, 6 days, 7 days, 2 weeks, 3 weeks, etc.) the liquid portion on top of the hydrogel was removed using a pipette and the hydrogel's volume was estimated using following formula: VTotal−VLiquid portion=VHydrogel (1)
wherein VTotal is the total volume and remains at 4 mL and VLiquid portion is the volume measured of the liquid portion after each sampling interval. At each sampling interval the pH was also measured; C. A picture of the inverted glass tube, only containing the self-sustaining non-fluid-like hydrogel, was taken in order to assess the physical deformation of the hydrogel and volume-loss; D. The PBS, mQ or enzyme solution is gently replaced on top of the hydrogel using a pipette, allowing repetition of steps A-D. Between sampling-intervals the glass tubes were kept undisturbed at room temperature. The gel degradation time was defined as the period required for complete disintegration of the hydrogels into liquid under observation of the naked eye.
(C) In a next step, the stability and degradation profiles of the mixed α/β-hydrogels were investigated using this methodology. During the first hours after addition of the elastase to peptide SEQ ID NO 1 hydrogel, no apparent physical deformation was observed. The collected liquid portion (on top of the hydrogel) measured 3 mL (during the first 10 hours). […] In comparison to the α-peptide 1 hydrogel the degradation time of peptide SEQ ID NO 1 hydrogel was extended from 3.5 days to 5.5 days. However, the physical alteration of this hydrogel into an opaque structure was already observed after one day.

[3] = Peptide self-assembly / gelation conditions; format: physicochemical
Procedure: Peptide self-assembly was analyzed in i) a PBS solution (10 mM), ii) a PBS/mQ mixture (1:1 v:v, mQ water with a resistivity of […]) or iii) a NaCl aqueous solution (150 mM). The TFA salt of reference peptide SEQ NO. 23 (1 mg) was dissolved in 50 μl mQ water, followed by the addition of 50 μl PBS solution. This mixture was left to rest overnight, resulting in a 1% w/v hydrogel. The TFA salt of mixed α/β-peptides SEQ ID NO 1 and SEQ ID NO 2 (2 mg) was dissolved in mQ (100 μL) and PBS/mQ mixture (100 μL), respectively. […] The TFA salt of mixed α/β-peptide SEQ ID NO 3 (3 mg) was dissolved in PBS (100 μL) to probe gelation. All self-assembled gels were analyzed by circular dichroism (CD) and Fourier transform infrared (FT-IR) spectroscopy, as well as cryogenic transmission electron microscopy (Cryo-TEM).
(SEQ ID NO:22 (=10-mer)), 100 μl mQ water was added to 2 mg of TFA-salt of pure peptide, then vortexed and sonicated. As a result, a transparent self-supporting gel was formed immediately. A gelation condition of 2 w/v % in mQ water was found.
for H-Fβ^2hFEFQFK-NH2 (SEQ ID NO:19), 100 μl of PBS was added to 2 mg of TFA-salt of pure peptide, then vortexed and sonicated. After overnight resting, a self-supporting gel was formed. A gelation condition of 2 w/v % in PBS was determined.

With `NCCCC[C@H](NC(=O)[C@H](Cc1ccccc1)NC(=O)C[C@H](Cc1ccccc1)NC(=O)[C@H](CCC(N)=O)NC(=O)[C@H](Cc1ccccc1)NC(=O)C[C@H](Cc1ccccc1)NC(=O)[C@H](CCC(=O)O)NC(=O)[C@@H](N)Cc1ccccc1)C(=O)O` [SEQ ID NO 1, H-Phe-Glu-β^3hPhe-Phe-Gln-β^3hPhe-Phe-Lys-OH] (H-FE[β3hF]FQ[β3hF]FK-OH) the “time to complete degradation by elastase” value (elastase [1]) was 6 days and 3 days, the “collected liquid portion on top of the hydrogel” value (elastase [2]; hydrogel with elastase, during the first 10 hours) was 3 mL and the “time at which hydrogel changed into an opaque structure” value (elastase [2]; hydrogel, elastase 60 μM in 10 mM PBS on top) was “one”. The “gel degradation time (hydrogel unstable/fluid-like)” value (elastase [2]; hydrogel, elastase 60 μM in 10 mM PBS on top, room temperature) was 5.5 days.

With `NCCCC[C@H](NC(=O)[C@H](Cc1ccccc1)NC(=O)C[C@H](Cc1ccccc1)NC(=O)[C@H](CCC(N)=O)NC(=O)[C@H](Cc1ccccc1)NC(=O)C[C@H](Cc1ccccc1)NC(=O)[C@H](CCC(=O)O)NC(=O)[C@@H](N)Cc1ccccc1)C(N)=O` [SEQ ID NO 2, H-Phe-Glu-β^3hPhe-Phe-Gln-β^3hPhe-Phe-Lys-NH2] (H-FE[β3hF]FQ[β3hF]FK-NH2) the “time to complete degradation by elastase” value (elastase [1]) was 6 days, the “hydrogel volume relative to original volume” value (elastase [2]; hydrogel with elastase, after 35 days) was “approximately half” and the “macroscopic aggregation / physical degradation” value (elastase [2]; hydrogel with elastase) was “no macroscopic aggregation was observed”.

With `NCCCC[C@H](NC(=O)[C@H](Cc1ccc(O)cc1)NC(=O)C[C@H](Cc1ccccc1)NC(=O)[C@H](CCC(N)=O)NC(=O)[C@H](Cc1ccc(O)cc1)NC(=O)C[C@H](Cc1ccccc1)NC(=O)[C@H](CCC(=O)O)NC(=O)[C@@H](N)Cc1ccccc1)C(N)=O` [SEQ ID NO 3, H-Phe-Glu-β^3hPhe-Tyr-Gln-β^3hPhe-Tyr-Lys-NH2] (H-FE[β3hF]YQ[β3hF]YK-NH2) the “time to complete degradation by elastase” value (elastase [1]) was 3 days, the “physical stability: time without observable volume loss” value (elastase [2]; hydrogel with elastase) was “over 42 days” and the “macroscopic aggregation / physical degradation” value (elastase [2]; hydrogel with elastase) was “no significant physical degradation nor aggregation”.

In the case of “H-Phe-Glu-β^3hPhe-Phe-Lys-NH2 (H-FE[β3hF]FK-NH2; SMILES NCCCC[C@H](NC(=O)[C@H](Cc1ccccc1)NC(=O)C[C@H](Cc1ccccc1)NC(=O)[C@H](CCC(=O)O)NC(=O)[C@@H](N)Cc1ccccc1)C(N)=O) [SEQ ID NO 6]”, the “Gelation condition % (w/v)” value ([3]; in PBS) is reported as 3% (PBS) % (w/v).

With “H-Phe-Glu-β^3hPhe-Phe-Lys-OH (H-FE[β3hF]FK-OH; SMILES NCCCC[C@H](NC(=O)[C@H](Cc1ccccc1)NC(=O)C[C@H](Cc1ccccc1)NC(=O)[C@H](CCC(=O)O)NC(=O)[C@@H](N)Cc1ccccc1)C(=O)O) [SEQ ID NO 7]” the “Gelation condition % (w/v)” value ([3]; in mQ) was 3% (mQ) % (w/v).

For “H-Phe-Glu-β^3hPhe-Phe-Lys-Phe-NH2 (H-FE[β3hF]FKF-NH2; SMILES NCCCC[C@H](NC(=O)[C@H](Cc1ccccc1)NC(=O)C[C@H](Cc1ccccc1)NC(=O)[C@H](CCC(=O)O)NC(=O)[C@@H](N)Cc1ccccc1)C(=O)N[C@@H](Cc1ccccc1)C(N)=O) [SEQ ID NO 11]”, the “Gelation condition % (w/v)” value ([3]; in PBS) was 2% (PBS) % (w/v).

In the case of “H-Phe-Glu-β^3hPhe-Phe-Lys-β^3hPhe-Phe-NH2 (H-FE[β3hF]FK[β3hF]F-NH2; SMILES NCCCC[C@H](NC(=O)[C@H](Cc1ccccc1)NC(=O)C[C@H](Cc1ccccc1)NC(=O)[C@H](CCC(=O)O)NC(=O)[C@@H](N)Cc1ccccc1)C(=O)N[C@H](CC(=O)N[C@@H](Cc1ccccc1)C(N)=O)Cc1ccccc1) [SEQ ID NO 16]”, the “Gelation condition % (w/v)” value ([3]; in mQ) is reported as 2% (mQ) % (w/v).

In the case of “H-Phe-β^3hPhe-Glu-Phe-Gln-Phe-Lys-NH2 (H-F[β3hF]EFQFK-NH2; SMILES NCCCC[C@H](NC(=O)[C@H](Cc1ccccc1)NC(=O)[C@H](CCC(N)=O)NC(=O)[C@H](Cc1ccccc1)NC(=O)[C@H](CCC(=O)O)NC(=O)C[C@H](Cc1ccccc1)NC(=O)[C@@H](N)Cc1ccccc1)C(N)=O) [SEQ ID NO 19]”, the “time of gelation (self-supporting gel formed)” value ([3]; TFA salt, at its own gelation condition) is reported as “overnight”, the gelation condition ([3]; TFA salt, in PBS) is reported as 2 w/v % and the “Gelation condition % (w/v)” value ([3]; in PBS) is reported as 2% (PBS) % (w/v).

With “H-Trp-Glu-β^3hPhe-Phe-Gln-Trp-Lys-NH2 (H-WE[β3hF]FQWK-NH2; SMILES NCCCC[C@H](NC(=O)[C@H](Cc1c[nH]c2ccccc12)NC(=O)[C@H](CCC(N)=O)NC(=O)[C@H](Cc1ccccc1)NC(=O)C[C@H](Cc1ccccc1)NC(=O)[C@H](CCC(=O)O)NC(=O)[C@@H](N)Cc1c[nH]c2ccccc12)C(N)=O) [SEQ ID NO 15]” the “Gelation condition % (w/v)” value ([3]; in PBS) was 2% (PBS) % (w/v).

With “H-Trp-Glu-β^3hTrp-Trp-Gln-Trp-Lys-NH2 (H-WE[β3hW]WQWK-NH2; SMILES NCCCC[C@H](NC(=O)[C@H](Cc1c[nH]c2ccccc12)NC(=O)[C@H](CCC(N)=O)NC(=O)[C@H](Cc1c[nH]c2ccccc12)NC(=O)C[C@H](Cc1c[nH]c2ccccc12)NC(=O)[C@H](CCC(=O)O)NC(=O)[C@@H](N)Cc1c[nH]c2ccccc12)C(N)=O) [SEQ ID NO 14]” the “Gelation condition % (w/v)” value ([3]; in mQ/PBS 1:0.5) was 1.5% (mQ/PBS 1:0.5) % (w/v).

For “H-β^3hPhe-Phe-Glu-Phe-Gln-Phe-Lys-NH2 (H-[β3hF]FEFQFK-NH2; SMILES NCCCC[C@H](NC(=O)[C@H](Cc1ccccc1)NC(=O)[C@H](CCC(N)=O)NC(=O)[C@H](Cc1ccccc1)NC(=O)[C@H](CCC(=O)O)NC(=O)[C@H](Cc1ccccc1)NC(=O)C[C@@H](N)Cc1ccccc1)C(N)=O) [SEQ ID NO 17]”, the “Gelation condition % (w/v)” value ([3]; in PBS) was 2% (PBS) % (w/v).

In the case of “H-β^3hPhe-Phe-Glu-β^3hPhe-Phe-Lys-NH2 (H-[β3hF]FE[β3hF]FK-NH2; SMILES NCCCC[C@H](NC(=O)[C@H](Cc1ccccc1)NC(=O)C[C@H](Cc1ccccc1)NC(=O)[C@H](CCC(=O)O)NC(=O)[C@H](Cc1ccccc1)NC(=O)C[C@@H](N)Cc1ccccc1)C(N)=O) [SEQ ID NO 10]”, the “Gelation condition % (w/v)” value ([3]; in PBS) is reported as 1% (PBS) % (w/v).
